The text below walks through data of patent US20230174623A1.

This assay deals with collagen within the matrix fraction of excised B16F10 tumors. The assay can be described thus: depletion of AF647-LAIR fluorescence from solution by the B16F10 tumor matrix fraction, at steady state.

On to AF647-labeled LAIR, for which the decrease in solution concentration (LAIR depleted from the bath) is 20%.

The substance AF647-labeled LAIR (receptor) showed an uptake into the tumor matrix (LAIR binding sites of a tumor) of 0.2 nmol.
